Source: US20170355768A1 (Bristol-Myers Squibb, published 2017)

Biological target: T1, human SLAM family member 7 (hSLAMF7) expressed on A20-hSLAMF7-GFP cells (human, UniProt Q9NQ25 23-335)
T1 construct: also called CS1; CS1-L
Experiment: flow cytometry, 6.25 ug/ml Elotuzumab on A20-hSLAMF7-GFP cells, anti-human IgG-PE secondary
Description: FIG. 3. Elotuzumab binding to hSLAMF7 expressed in A20 cells was confirmed by flow cytometry. A20-GFP or A20-hSLAMF7-GFP cells were incubated with 6.25 ug/ml Elotuzumab (BMS), washed twice and incubated with anti-human IgG-PE secondary antibody. The frequency of cells staining positive for GFP and hSLAMF7 is shown at 0 days.
To determine whether hSLAMF7 expressed in A20 is recognized by Elotuzumab, A20-GFP and A20-hSLAMF7-GFP cells were stained with Elotuzumab. A20-GFP or A20-hSLAMF7-GFP cells were incubated with 6.25 ug/ml Elotuzumab (BMS), washed twice and incubated with anti-human IgG-PE secondary antibody. The frequency of cells staining positive for GFP and hSLAMF7 was determined using flow cytometry.

B1: Elotuzumab (antibody, V domains shown)
VH: EVQLVESGGGLVQPGGSLRLSCAASGFDFSRYWMSWVRQAPGKGLEWIGEINPDSSTINYAPSLKDKFIISRDNAKNSLYLQMNSLRAEDTAVYYCARPDGNYWYFDVWGQGTLVTVSS
VL: DIQMTQSPSSLSASVGDRVTITCKASQDVGIAVAWYQQKPGKVPKLLIYWASTRHTGVPDRFSGSGSGTDFTLTISSLQPEDVATYYCQQYSSYPYTFGQGTKVEIK
notes: also called BMS-901608; HuLuc63
  binding result: binds
